Reference: paper PMC4989220

What was measured:
[1] = target: Rab6a GTPase (rat hepatocytes) (rat (endogenous in primary hepatocytes)) (UniProt Q9WVB1); experiment: proximity ligation; Duolink in situ PLA in control VA-13 cells and hepatocytes from control rats; mouse anti-giantin + rabbit anti-Rab6a, or mouse anti-Rab6a + rabbit anti-NMIIA-P-S1943; cells with more than one red spot counted
[2] = target: Rab6a GTPase (human (endogenous in VA-13, HepG2-derived)) (UniProt P20340); experiment: as above
Chain of Rab6a GTPase (human (endogenous in VA-13, HepG2-derived)) (P20340 whole entry): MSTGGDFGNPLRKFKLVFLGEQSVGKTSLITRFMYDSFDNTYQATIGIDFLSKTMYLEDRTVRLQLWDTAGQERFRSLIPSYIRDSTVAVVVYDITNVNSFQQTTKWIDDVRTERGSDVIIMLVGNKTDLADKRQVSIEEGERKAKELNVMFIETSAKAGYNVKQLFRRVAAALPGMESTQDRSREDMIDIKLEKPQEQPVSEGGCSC

[3] = target: Rab6a GTPase (rat hepatocytes) (rat (endogenous in primary hepatocytes)) (UniProt Q9WVB1); experiment: proximity ligation; Duolink in situ PLA in VA-13 cells treated with 35 mM EtOH for 72 h and hepatocytes from EtOH-fed rats; mouse anti-Rab6a + rabbit anti-NMIIA-P-S1943; cells with more than one red spot counted

Chain of Rab6a GTPase (rat hepatocytes) (rat (endogenous in primary hepatocytes)) (Q9WVB1 whole entry): as the sequence (P20340 whole entry) above, with T3A, S202N counted along it
Chain of non-muscle Myosin IIA heavy chain phosphorylated at S1943 (rat hepatocytes) (Q62812 2-1961): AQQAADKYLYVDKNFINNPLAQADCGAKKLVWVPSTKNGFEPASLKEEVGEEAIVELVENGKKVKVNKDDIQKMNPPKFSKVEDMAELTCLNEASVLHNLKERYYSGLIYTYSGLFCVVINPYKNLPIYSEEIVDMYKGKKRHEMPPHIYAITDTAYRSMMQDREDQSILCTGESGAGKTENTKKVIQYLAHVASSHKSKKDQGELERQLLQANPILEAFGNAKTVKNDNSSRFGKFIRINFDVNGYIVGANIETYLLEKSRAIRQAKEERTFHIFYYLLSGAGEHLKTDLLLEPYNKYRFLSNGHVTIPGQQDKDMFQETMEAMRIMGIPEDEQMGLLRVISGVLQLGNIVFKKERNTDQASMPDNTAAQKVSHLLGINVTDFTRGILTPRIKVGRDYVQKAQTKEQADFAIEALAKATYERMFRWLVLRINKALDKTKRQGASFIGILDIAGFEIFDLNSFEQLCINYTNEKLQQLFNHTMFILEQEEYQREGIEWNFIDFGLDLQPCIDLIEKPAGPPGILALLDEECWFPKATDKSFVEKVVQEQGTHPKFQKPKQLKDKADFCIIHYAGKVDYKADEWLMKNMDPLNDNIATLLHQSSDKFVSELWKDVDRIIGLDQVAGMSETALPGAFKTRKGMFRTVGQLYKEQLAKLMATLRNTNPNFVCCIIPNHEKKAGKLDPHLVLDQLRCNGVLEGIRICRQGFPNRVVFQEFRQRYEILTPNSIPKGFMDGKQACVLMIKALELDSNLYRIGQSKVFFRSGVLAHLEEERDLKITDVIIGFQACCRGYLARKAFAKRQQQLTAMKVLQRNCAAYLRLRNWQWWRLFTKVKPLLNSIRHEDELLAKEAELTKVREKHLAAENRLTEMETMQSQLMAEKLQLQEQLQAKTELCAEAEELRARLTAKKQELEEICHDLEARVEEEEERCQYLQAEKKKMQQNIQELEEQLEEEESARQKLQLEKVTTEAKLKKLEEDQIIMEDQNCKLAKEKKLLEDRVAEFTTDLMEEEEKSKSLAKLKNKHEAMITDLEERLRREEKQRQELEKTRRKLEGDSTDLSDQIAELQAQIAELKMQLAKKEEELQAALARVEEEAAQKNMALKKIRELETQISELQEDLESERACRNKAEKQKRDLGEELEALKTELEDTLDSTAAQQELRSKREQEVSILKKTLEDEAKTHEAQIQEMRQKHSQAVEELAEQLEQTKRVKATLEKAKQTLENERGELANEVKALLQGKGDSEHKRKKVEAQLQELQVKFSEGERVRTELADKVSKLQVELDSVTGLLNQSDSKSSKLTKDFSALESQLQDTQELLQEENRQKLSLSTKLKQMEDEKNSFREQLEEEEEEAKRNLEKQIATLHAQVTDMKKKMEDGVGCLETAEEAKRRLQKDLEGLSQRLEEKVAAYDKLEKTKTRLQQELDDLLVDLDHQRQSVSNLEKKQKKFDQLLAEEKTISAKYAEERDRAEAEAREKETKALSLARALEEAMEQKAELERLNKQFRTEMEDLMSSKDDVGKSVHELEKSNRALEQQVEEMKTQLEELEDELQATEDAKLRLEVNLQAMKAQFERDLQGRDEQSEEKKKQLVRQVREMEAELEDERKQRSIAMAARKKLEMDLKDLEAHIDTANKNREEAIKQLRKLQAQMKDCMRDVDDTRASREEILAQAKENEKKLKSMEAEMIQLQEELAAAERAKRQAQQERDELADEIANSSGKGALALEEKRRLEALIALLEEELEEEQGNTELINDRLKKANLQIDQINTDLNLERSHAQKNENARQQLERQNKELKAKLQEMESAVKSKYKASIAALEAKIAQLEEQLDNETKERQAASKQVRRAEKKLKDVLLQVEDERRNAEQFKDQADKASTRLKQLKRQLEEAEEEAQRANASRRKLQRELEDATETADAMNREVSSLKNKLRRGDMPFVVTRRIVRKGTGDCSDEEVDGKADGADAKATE

giantin (rat hepatocytes) (natural protein)
percent of cells with more than one PLA spot [1]: 83%

giantin, Q14789 1-3259
percent of cells with more than one PLA spot [2]: 78%

non-muscle Myosin IIA heavy chain phosphorylated at S1943 (rat hepatocytes) (from UniProt Q62812 1-1961) (natural protein)
percent of cells with PLA-positive puncta [3]: 86%
